Data taken from PMC11880193 (Nature Communications, 2025).

Target: the molecule itself
Assay: SEC

| Protein | stoichiometry N | binding result |
| --- | --- | --- |
| CODANIN-1 F581E/E652A (LOBE2 dimer interface mutant) (natural protein) MAAVLESLLREEVSVAAVVRWIARSTQGSEDNAGEAAALSSLRALRKEFVPFLLNFLREQSSRVLPQGPPTPAKTPGASAALPGRPGGPPRGSRGARSQLFPPTEAQSTAAEAPLARRGGRRRGPGPARERGGRGLEEGVSGESLPGAGGRRLRGSGSPSRPSLTLSDPPNLSNLEEFPPVGSVPPGPTGTKPSRRINPTPVSEERSLSKPKTCFTSPPISCVPSSQPSALDTSPWGLGLPPGCRSLQEEREMLRKERSKQLQQSPTPTCPTPELGSPLPSRTGSLTDEPADPARVSSRQRLELVALVYSSCIAENLVPNLFLELFFVFQLLTARRMVTAKDSDPELSPAVLDSLESPLFQSIHDCVFFAVQVLECHFQVLSNLDKGTLKLLAENERLLCFSPALQGRLRAAYEGSVAKVSLVMPPSTQAVSFQPETDNRANFSSDRAFHTFKKQRDVFYEVLREWEDHHEEPGWDFEKGLGSRIRAMMGQLSAACSHSHFVRLFQKQLLQMCQSPGGAGGTVLGEAPDVLSMLGADKLGRLWRLQERLMAPQSSGGPCPPPTFPGCQGFFRDFILSASSEQFNQHLMDSLSLKIQELNGLALPQHEPNDEDGESDVDWQGERKQFAVVLLSLRLLAKFLGFVAFLPYRGPAPPPTGELQDSILALRSQVPPVLDVRTLLQRGLQARRAVLTVPWLVEFLSFADHVVPLLEYYRDIFTLLLRLHRSLVLSQESEGKMCFLNKLLLLAVLGWLFQIPTVPEDLFFLEEGPSYAFEVDTVAPEHGLDNAPVVDQQLLYTCCPYIGELRKLLASWVSGSSGRSGGFMRKITPTTTTSLGAQPSQTSQGLQAQLAQAFFHNQPPSLRRTVEFVAERIGSNCVKHIKATLVADLVRQAESLLQEQLVTQGEEGGDPAQLLEILCSQLCPHGAQALALGREFCQRKSPGAVRALLPEETPAAVLSSAENIAVGLATEKACAWLSANITALIRREVKAAVSRTLRAQGPEPAARGERRGCSRACEHHAPLPSHLISEIKDVLSLAVGPRDPDEGVSPEHLEQLLGQLGQTLRCRQFLCPPAEQHLAKCSVELASLLVADQIPILGPPAQYRLERGQARRLLHMLLSLWKEDFQGPVPLQLLLSPRNVGLLADTRPREWDLLLFLLRELVEKGLMGRMEIEACLGSLHQAQWPGDFAEELATLSNLFLAEPHLPEPQLRACELVQPNRGTVLAQS | 2 | – |
| CODANIN-1 F868I/E871R (C-terminal coiled-coil mutant) (natural protein) MAAVLESLLREEVSVAAVVRWIARSTQGSEDNAGEAAALSSLRALRKEFVPFLLNFLREQSSRVLPQGPPTPAKTPGASAALPGRPGGPPRGSRGARSQLFPPTEAQSTAAEAPLARRGGRRRGPGPARERGGRGLEEGVSGESLPGAGGRRLRGSGSPSRPSLTLSDPPNLSNLEEFPPVGSVPPGPTGTKPSRRINPTPVSEERSLSKPKTCFTSPPISCVPSSQPSALDTSPWGLGLPPGCRSLQEEREMLRKERSKQLQQSPTPTCPTPELGSPLPSRTGSLTDEPADPARVSSRQRLELVALVYSSCIAENLVPNLFLELFFVFQLLTARRMVTAKDSDPELSPAVLDSLESPLFQSIHDCVFFAVQVLECHFQVLSNLDKGTLKLLAENERLLCFSPALQGRLRAAYEGSVAKVSLVMPPSTQAVSFQPETDNRANFSSDRAFHTFKKQRDVFYEVLREWEDHHEEPGWDFEKGLGSRIRAMMGQLSAACSHSHFVRLFQKQLLQMCQSPGGAGGTVLGEAPDVLSMLGADKLGRLWRLQERLMAPQSSGGPCPPPTFPGCQGFFRDFILSASSFQFNQHLMDSLSLKIQELNGLALPQHEPNDEDGESDVDWQGERKQFAVVLLSLRLLAKFLGFVAFLPYRGPEPPPTGELQDSILALRSQVPPVLDVRTLLQRGLQARRAVLTVPWLVEFLSFADHVVPLLEYYRDIFTLLLRLHRSLVLSQESEGKMCFLNKLLLLAVLGWLFQIPTVPEDLFFLEEGPSYAFEVDTVAPEHGLDNAPVVDQQLLYTCCPYIGELRKLLASWVSGSSGRSGGFMRKITPTTTTSLGAQPSQTSQGLQAQLAQAFFHNQPPSLRRTVEIVARRIGSNCVKHIKATLVADLVRQAESLLQEQLVTQGEEGGDPAQLLEILCSQLCPHGAQALALGREFCQRKSPGAVRALLPEETPAAVLSSAENIAVGLATEKACAWLSANITALIRREVKAAVSRTLRAQGPEPAARGERRGCSRACEHHAPLPSHLISEIKDVLSLAVGPRDPDEGVSPEHLEQLLGQLGQTLRCRQFLCPPAEQHLAKCSVELASLLVADQIPILGPPAQYRLERGQARRLLHMLLSLWKEDFQGPVPLQLLLSPRNVGLLADTRPREWDLLLFLLRELVEKGLMGRMEIEACLGSLHQAQWPGDFAEELATLSNLFLAEPHLPEPQLRACELVQPNRGTVLAQS | – | binds |
| CODANIN-1 P672L (CDA-I disease mutation) (natural protein) MAAVLESLLREEVSVAAVVRWIARSTQGSEDNAGEAAALSSLRALRKEFVPFLLNFLREQSSRVLPQGPPTPAKTPGASAALPGRPGGPPRGSRGARSQLFPPTEAQSTAAEAPLARRGGRRRGPGPARERGGRGLEEGVSGESLPGAGGRRLRGSGSPSRPSLTLSDPPNLSNLEEFPPVGSVPPGPTGTKPSRRINPTPVSEERSLSKPKTCFTSPPISCVPSSQPSALDTSPWGLGLPPGCRSLQEEREMLRKERSKQLQQSPTPTCPTPELGSPLPSRTGSLTDEPADPARVSSRQRLELVALVYSSCIAENLVPNLFLELFFVFQLLTARRMVTAKDSDPELSPAVLDSLESPLFQSIHDCVFFAVQVLECHFQVLSNLDKGTLKLLAENERLLCFSPALQGRLRAAYEGSVAKVSLVMPPSTQAVSFQPETDNRANFSSDRAFHTFKKQRDVFYEVLREWEDHHEEPGWDFEKGLGSRIRAMMGQLSAACSHSHFVRLFQKQLLQMCQSPGGAGGTVLGEAPDVLSMLGADKLGRLWRLQERLMAPQSSGGPCPPPTFPGCQGFFRDFILSASSFQFNQHLMDSLSLKIQELNGLALPQHEPNDEDGESDVDWQGERKQFAVVLLSLRLLAKFLGFVAFLPYRGPEPPPTGELQDSILALRSQVPLVLDVRTLLQRGLQARRAVLTVPWLVEFLSFADHVVPLLEYYRDIFTLLLRLHRSLVLSQESEGKMCFLNKLLLLAVLGWLFQIPTVPEDLFFLEEGPSYAFEVDTVAPEHGLDNAPVVDQQLLYTCCPYIGELRKLLASWVSGSSGRSGGFMRKITPTTTTSLGAQPSQTSQGLQAQLAQAFFHNQPPSLRRTVEFVAERIGSNCVKHIKATLVADLVRQAESLLQEQLVTQGEEGGDPAQLLEILCSQLCPHGAQALALGREFCQRKSPGAVRALLPEETPAAVLSSAENIAVGLATEKACAWLSANITALIRREVKAAVSRTLRAQGPEPAARGERRGCSRACEHHAPLPSHLISEIKDVLSLAVGPRDPDEGVSPEHLEQLLGQLGQTLRCRQFLCPPAEQHLAKCSVELASLLVADQIPILGPPAQYRLERGQARRLLHMLLSLWKEDFQGPVPLQLLLSPRNVGLLADTRPREWDLLLFLLRELVEKGLMGRMEIEACLGSLHQAQWPGDFAEELATLSNLFLAEPHLPEPQLRACELVQPNRGTVLAQS | 2 | – |
